Experiment [1] deals with human Nectin-4-eGFP on T24 cells (clone 3) (human) (UniProt Q96NY8). In words: cell-based or functional assay.
Experiment [2] concerns the target human nectin-4 on cells (human) (UniProt Q96NY8). The experiment in a line: cell-based or functional assay.

B1: enfortumab ADC (enfortumab conjugated as in Formula XI, DAR of 8) (antibody, INN chains, looked up, V domains shown)
VH: EVQLVESGGGLVQPGGSLRLSCAASGFTFSSYNMNWVRQAPGKGLEWVSYISSSSSTIYYADSVKGRFTISRDNAKNSLSLQMNSLRDEDTAVYYCARAYYYGMDVWGQGTTVTVSS
VL: DIQMTQSPSSVSASVGDRVTITCRASQGISGWLAWYQQKPGKAPKFLIYAASTLQSGVPSRFSGSGSGTDFTLTISSLQPEDFATYYCQQANSFPPTFGGGTKVEIKR
modifications: drug conjugate Formula XI, DAR 8
As to B1, in experiment [1], the % activity (max GFP signal loss compared to enfortumab mAb (100%)) was 120% and the EC50 (nM) of nectin-4-eGFP signal loss came out at 2.55 nM. In addition, in experiment [2], the Cytotoxicity IC50, NCI H1781 cells worked out at 0.0409 nM and the Cytotoxicity IC50, T24 Nectin-4 clone 108 cells was determined as 0.0747 nM.

The values are drawn from US20250000991A1, “NECTIN-4 ANTIBODIES AND ANTIBODY-DRUG CONJUGATES” (Eli Lilly and Company, priority 2023, published 2025).
